From publication doi:10.1101/2022.06.14.495942 (bioRxiv, 2022) come the findings set out here.

Assay [1] addresses LFY-DBD in the purified ASK1-UFO-LFY-DBD complex (Arabidopsis thaliana). The assay is described as follows: SEC-MALS. In general terms: SEC sorts molecules by how far they enter the pores of the column.
The target in assay [2] is T1, UFO in the purified ASK1-UFO-LFY-DBD complex (Arabidopsis thaliana, UniProt Q39090 1-442).
T1 sequence: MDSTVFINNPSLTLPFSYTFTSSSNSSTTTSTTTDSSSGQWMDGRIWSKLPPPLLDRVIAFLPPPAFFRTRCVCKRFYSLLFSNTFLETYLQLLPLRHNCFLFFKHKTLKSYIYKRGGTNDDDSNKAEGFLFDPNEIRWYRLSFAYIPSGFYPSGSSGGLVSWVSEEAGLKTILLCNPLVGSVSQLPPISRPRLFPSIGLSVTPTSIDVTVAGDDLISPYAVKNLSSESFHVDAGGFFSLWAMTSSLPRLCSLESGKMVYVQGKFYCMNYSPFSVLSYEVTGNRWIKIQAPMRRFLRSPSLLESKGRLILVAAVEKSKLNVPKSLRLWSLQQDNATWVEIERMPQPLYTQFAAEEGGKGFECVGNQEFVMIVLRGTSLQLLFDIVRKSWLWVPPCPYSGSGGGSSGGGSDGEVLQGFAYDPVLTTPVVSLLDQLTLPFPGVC
Nature of the assay: SEC-MALS.

One may read the stoichiometry N as a count of units in the complex or per binding partner.

B1: UFO in the purified ASK1-UFO-LFY-DBD complex (natural protein)
chain: MDSTVFINNPSLTLPFSYTFTSSSNSSTTTSTTTDSSSGQWMDGRIWSKLPPPLLDRVIAFLPPPAFFRTRCVCKRFYSLLFSNTFLETYLQLLPLRHNCFLFFKHKTLKSYIYKRGGTNDDDSNKAEGFLFDPNEIRWYRLSFAYIPSGFYPSGSSGGLVSWVSEEAGLKTILLCNPLVGSVSQLPPISRPRLFPSIGLSVTPTSIDVTVAGDDLISPYAVKNLSSESFHVDAGGFFSLWAMTSSLPRLCSLESGKMVYVQGKFYCMNYSPFSVLSYEVTGNRWIKIQAPMRRFLRSPSLLESKGRLILVAAVEKSKLNVPKSLRLWSLQQDNATWVEIERMPQPLYTQFAAEEGGKGFECVGNQEFVMIVLRGTSLQLLFDIVRKSWLWVPPCPYSGSGGGSSGGGSDGEVLQGFAYDPVLTTPVVSLLDQLTLPFPGVC
B1 gave a stoichiometry N in assay [1] of 1.

B2: ASK1 in the purified ASK1-UFO-LFY-DBD complex (natural protein)
chain: MSAKKIVLKSSDGESFEVEEAVALESQTIAHMVEDDCVDNGVPLPNVTSKILAKVIEYCKRHVEAAASKAEAVEGAATSDDDLKAWDADFMKIDQATLFELILAANYLNIKNLLDLTCQTVADMIKGKTPEEIRTTFNIKNDFTPEEEEEVRRENQWAFE
On to B2, for which the “stoichiometry N” value in assay [2] is 1.
